Source: US20140154255A1 (AbbVie / Abbott, published 2014)
Substitutions are numbered along the chain they refer to.

B1: 83 (antibody, human IgG1, V domains shown)
VH: EVQLVESGGGLVQPGGSLRLSCAASGYTFTFYGMNWVRQAPGKGLEWVGWINTYTGEPTYAADFKRRFTFSLDTSKSTAYLQMNSLRAEDTAVYYCAKYPPYDGGSHWYFDVWGQGTLVTVSS
VL: DIQMTQSPSSLSASVGDRVTITCSASQDISNYLNWYQQKPGKAPKVLIYFTSSLHSGVPSRFSGSGSGTDFTLTISSLQPEDFATYYCQQYSTVPWTFGQGTKVEIKR
B2: 84 (antibody, human IgG1, V domains shown)
VH: B1 VH with D103E, G105S
VL: B1 VL
B3: T30 K (anti-VEGF IgG) (antibody, V domains shown)
VH: B1 VH with T30K, F31N, P101H, D103Y, G105S
VL: DIQMTQSPSSLSASVGDRVTITCSASQDISNYLNWYQQKPGKAPKVLIYFTSSLHSGVPSRFSGSGSGTDFTLTISSLQPEDFATYYCQQYSTVPWTFGQGTKVEIK
notes: copies: 2 + 2
B4: S100a Q (anti-VEGF IgG) (antibody, V domains shown)
VH: B1 VH with F31N, P101H, D103Y, G105Q
VL: B3 VL
notes: copies: 2 + 2
B5: T28 G (anti-VEGF IgG) (antibody, V domains shown)
VH: B1 VH with T28G, F31N, P101H, D103Y, G105S
VL: B3 VL
notes: copies: 2 + 2
B6: N31 L (anti-VEGF IgG) (antibody, V domains shown)
VH: B1 VH with F31L, P101H, D103Y, G105S
VL: B3 VL
notes: copies: 2 + 2
B7: S100a A (anti-VEGF IgG) (antibody, V domains shown)
VH: B1 VH with F31N, P101H, D103Y, G105A
VL: B3 VL
notes: copies: 2 + 2
B8: N31 Y (anti-VEGF IgG) (antibody, V domains shown)
VH: B1 VH with F31Y, P101H, D103Y, G105S
VL: B3 VL
notes: copies: 2 + 2
B9: S100a T (anti-VEGF IgG) (antibody, V domains shown)
VH: B1 VH with F31N, P101H, D103Y, G105T
VL: B3 VL
notes: copies: 2 + 2
B10: H97 A (anti-VEGF IgG) (antibody, V domains shown)
VH: B1 VH with F31N, P101A, D103Y, G105S
VL: B3 VL
notes: copies: 2 + 2
B11: N31 W (anti-VEGF IgG) (antibody, V domains shown)
VH: B1 VH with F31W, P101H, D103Y, G105S
VL: B3 VL
notes: copies: 2 + 2
B12: N31 H (anti-VEGF IgG) (antibody, V domains shown)
VH: B1 VH with F31H, P101H, D103Y, G105S
VL: B3 VL
notes: copies: 2 + 2
B13: S100a G (anti-VEGF IgG) (antibody, V domains shown)
VH: B1 VH with F31N, P101H, D103Y
VL: B3 VL
notes: copies: 2 + 2
B14: T28 Y (anti-VEGF IgG) (antibody, V domains shown)
VH: B1 VH with T28Y, F31N, P101H, D103Y, G105S
VL: B3 VL
notes: copies: 2 + 2
B15: T28 R (anti-VEGF IgG) (antibody, V domains shown)
VH: B1 VH with T28R, F31N, P101H, D103Y, G105S
VL: B3 VL
notes: copies: 2 + 2
B16: T30 R (anti-VEGF IgG) (antibody, V domains shown)
VH: B1 VH with T30R, F31N, P101H, D103Y, G105S
VL: B3 VL
notes: copies: 2 + 2
B17: T30 W (anti-VEGF IgG) (antibody, V domains shown)
VH: B1 VH with T30W, F31N, P101H, D103Y, G105S
VL: B3 VL
notes: copies: 2 + 2
B18: T30 N (anti-VEGF IgG) (antibody, V domains shown)
VH: B1 VH with T30N, F31N, P101H, D103Y, G105S
VL: B3 VL
notes: copies: 2 + 2

Molecular target: T1, VEGF (R&D systems, Minneapolis, Minn.) (UniProt P15692-4 27-191, limits assumed)
Assay: BIAcore SPR
Method: (§1) RL was kept low to minimize avidity due to the dimeric nature of VEGF. No capture of the antibody was made on the reference surface to serve as a negative control. Subsequently, VEGF was injected to all flow cells at a flow rate of 50 μL/min for two minutes to monitor association followed by a 25-minute flow of HBS-P running buffer (10 mM HEPES, 150 mM sodium chloride, 0.005% P-20, pH 7.4) to monitor the dissociation phase. At each cycle, VEGF, in 6 different concentrations of VEGF ranging between 0 nM and 512 nM and at four-fold increments, was injected over the surface. […] Binding data were fit to the 1:1 Langmuir model to extract binding constants from the BIAevaluate software. Double referencing was applied in each analysis to eliminate background responses from the reference surface and buffer only control. All the binding kinetics data were analyzed at least three separate determinations.

T1 sequence (P15692 other isoform, or with tags, fused parts or gaps limits assumed): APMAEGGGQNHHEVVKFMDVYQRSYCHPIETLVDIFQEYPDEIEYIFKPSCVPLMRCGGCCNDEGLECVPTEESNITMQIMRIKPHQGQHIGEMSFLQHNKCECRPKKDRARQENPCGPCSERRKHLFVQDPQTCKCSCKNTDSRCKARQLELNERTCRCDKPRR

Kd	koff	kon	Binder
0.106 nM	0.000194 s⁻¹	1.88e+06 M⁻¹ s⁻¹	B1
0.128 nM	0.000182 s⁻¹	1.6e+06 M⁻¹ s⁻¹	B2

Molecular target: T2, human VEGF-A residues 27-191 of Accession #AAV38412 (human, UniProt P15692 27-191)
T2 construct: range 27-191
Assay: BIAcore SPR
Method: (§2) The binding kinetics and affinity of the antibodies for VEGF (human VEGF-A residues 27-191 of Accession #AAV38412) was determined by using a BIAcore T200 surface plasmon resonance system (BIAcore, GE Healthcare, Piscataway, N.J.). Coupling running buffer was HBS-EP+ running buffer (10 mM HEPES, 150 mM sodium chloride, 3 mM EDTA 0.05% P-20, pH 7.4); assay running buffer was HBS-EP+ with 300 mM sodium chloride and 0.1 mg/mL BSA (Sigma A7906). Polyclonal goat anti-human Fc (Thermo Scientific prod#31125) was first immobilized to the biosensor surface in 10 mM sodium acetate, pH 4.5 using standard BIAcore amine coupling reagents (N-ethyl-N′-dimethylamino-propylcarbodiimide, EDC; N-hydroxysuccinimide, NHS; and ethanolamine HCl, pH 8.5). For binding kinetics assay a series of cycles were performed, each cycle consisted of 1) mAb capture, 2) Ag or buffer injection, 3) dissociation phase and 4) regeneration. Briefly, anti-VEGF antibodies were captured on parallel surfaces at a low flow rate of 10 μL/min. Capture levels were kept low to minimize avidity due to the dimeric nature of VEGF. No capture of the antibody was made on the reference surface to serve for primary referencing and as a negative control. Subsequently, VEGF or buffer only was injected to all flow cells at a flow rate of 80 μL/min for three minutes to monitor association followed by a 20-minute flow of assay rinning buffer at a flow rate of 80 μL/min to monitor dissociation. […] At the end of each cycle the surface was regenerated with 10 mM glycine, pH 1.5 at a flow rate of 60 μL/min in pulses of 60 and 10 sec. Binding data were fit to the 1:1 Langmuir model with mass transport term included using Biacore T200 Evaluation Software to determine the binding constants.

T2 sequence (P15692 other isoform, or with tags, fused parts or gaps limits assumed): as above

Kd	koff	kon	Binder
0.92 nM	8.53e-05 s⁻¹	92800 M⁻¹ s⁻¹	B3
0.451 nM	6.04e-05 s⁻¹	134000 M⁻¹ s⁻¹	B4
0.374 nM	4.97e-05 s⁻¹	133000 M⁻¹ s⁻¹	B5
0.278 nM	6.05e-05 s⁻¹	218000 M⁻¹ s⁻¹	B6
0.337 nM	7.68e-05 s⁻¹	228000 M⁻¹ s⁻¹	B7
0.077 nM	1.77e-05 s⁻¹	230000 M⁻¹ s⁻¹	B8
0.197 nM	4.15e-05 s⁻¹	211000 M⁻¹ s⁻¹	B9
2.2 nM	0.000451 s⁻¹	205000 M⁻¹ s⁻¹	B10
0.164 nM	3.42e-05 s⁻¹	209000 M⁻¹ s⁻¹	B11
0.172 nM	3.17e-05 s⁻¹	184000 M⁻¹ s⁻¹	B12
0.602 nM	0.000133 s⁻¹	221000 M⁻¹ s⁻¹	B13
0.52 nM	6.32e-05 s⁻¹	122000 M⁻¹ s⁻¹	B14
0.675 nM	6.44e-05 s⁻¹	95400 M⁻¹ s⁻¹	B15
0.644 nM	6.76e-05 s⁻¹	105000 M⁻¹ s⁻¹	B16
0.309 nM	5.74e-05 s⁻¹	186000 M⁻¹ s⁻¹	B17
0.303 nM	5.14e-05 s⁻¹	170000 M⁻¹ s⁻¹	B18

Molecular target: T1, VEGF (R&D systems, Minneapolis, Minn.)
Assay: BIAcore SPR, WT/mutant
Method: as §1

Δkoff	Binder
1.8 fold	B1
1.9 fold	B2

Molecular target: T1, VEGF (R&D systems, Minneapolis, Minn.)
Assay: BIAcore SPR, mutant/WT
Method: as §1

Δkon	Binder
10.4 fold	B1
8.9 fold	B2

Molecular target: T2, human VEGF-A residues 27-191 of …
Assay: BIAcore SPR, KD WT/KD mutant
Method: as §2

affinity improvement	Binder
0.5 fold	B3
1.1 fold	B4
1.3 fold	B5
1.8 fold	B6
1.3 fold	B7
6.6 fold	B8
2.2 fold	B9
0.2 fold	B10
3.1 fold	B11
2.5 fold	B12
0.8 fold	B13
1 fold	B14
0.6 fold	B15
1.3 fold	B16
1.6 fold	B17
1.7 fold	B18

Molecular target: T1, VEGF (R&D systems, Minneapolis, Minn.)
Assay: BIAcore SPR, improvement over WT
Method: as §1

ΔKD	Binder
18.6 fold	B1
15.3 fold	B2

Molecular target: T3, unlabeled human VEGF (ELISA coat) (human, UniProt P15692-4 27-191, limits assumed)
Assay: ELISA 1 hr, EC50 WT/EC50 mutant
Method: (§3) To detect identified variants binding to antigen, ELISA plates (Nunc-Immuno MaxiSorp plates, Nalge Nunc, Rochester, N.Y.) were coated overnight at 4° C. with unlabeled human VEGF at 1 μg/mL in 0.2 M sodium carbonate-bicarbonate buffer (pH 9.4, Pierce, Rockford, Ill.). The plates were then blocked with SuperBlock Blocking Buffer (Pierce, Rockford, Ill.) for 30 min and washed with Washing Buffer (PBS containing 0.1% Tween 20). All the washing steps were performed for three times. […] The plates were washed and 100 μL of goat anti-human kappa HRP-conjugated antibody (Southern Biotech, Birmingham, Ala.) diluted at 1:1000 in ELISA buffer was added to each well. After 30 minutes of incubation, plates were washed and bound antibodies were detected by addition of TMB 1 Component HRP Microwell substrate (BioFx #TMBW-1000-01). The reaction was terminated by addition of 100 μL/well of 650 nM Stop Reagent for TMB Microwell substrate and the absorbance was measured at 650 nm using a VERSAmax microplate reader (Molecular Devices, Sunnyvale, Calif.). Data were fitted using nonlinear regression with the software […]

T3 sequence (P15692 other isoform, or with tags, fused parts or gaps limits assumed): as above

ELISA 1hr binding	Binder
2.5 fold	B3
3.7 fold	B4
5.4 fold	B5
1.1 fold	B6
2.2 fold	B7
3 fold	B8
2.3 fold	B9
4 fold	B10
2.1 fold	B11
2.2 fold	B12
3.7 fold	B13
5.2 fold	B14
1.4 fold	B15
2.9 fold	B16
2.9 fold	B17
2.4 fold	B18

Molecular target: T3, unlabeled human VEGF (ELISA coat)
Assay: ELISA overnight, EC50 WT/EC50 mutant
Method: as §3

ELISA o/n binding	Binder
3.1 fold	B3
3.6 fold	B4
3.9 fold	B5
1.1 fold	B6
2.1 fold	B7
1.5 fold	B8
2.7 fold	B9
3.4 fold	B10
1.3 fold	B11
1.9 fold	B12
3.7 fold	B13
3.4 fold	B14
1.8 fold	B15
3.2 fold	B16
4.5 fold	B17
4 fold	B18
